[ ]: non-standard residue; d: D form. The star is where a group is joined. Butanoyl(4-Ph) = O=C(CCCc1ccccc1)*; Stearyl = stearyl group
B1: peptide 890 (peptide)
peptide: VPKGWRXHEXSYS
modifications: N-terminal acetyl (Ac); C-terminal amide; D-Cha at 7; D-buthionine at 10; D-isomers at all residues except Gly 4
B2: peptide 880 (peptide)
peptide: Ac-[dV][dP][dK]G[dW][dR]F[dH][dS][dI][dI][dS][dS]-NH2
SMILES: CC[C@@H](C)[C@@H](NC(=O)[C@@H](CO)NC(=O)[C@@H](Cc1c[nH]cn1)NC(=O)[C@H](Cc1ccccc1)NC(=O)[C@@H](CCCNC(=N)N)NC(=O)[C@@H](Cc1c[nH]c2ccccc12)NC(=O)CNC(=O)[C@@H](CCCCN)NC(=O)[C@H]1CCCN1C(=O)[C@H](NC(C)=O)C(C)C)C(=O)N[C@@H](C(=O)N[C@H](CO)C(=O)N[C@H](CO)C(N)=O)[C@H](C)CC
B3: peptide 895 (peptide)
peptide: VPKGWRFHEMSYS
modifications: N-terminal acetyl (Ac); C-terminal amide; L-His at 8; D-isomers at all other residues except Gly 4
B4: peptide 893 (peptide)
peptide: VPKGWRFHEMSYS
modifications: N-terminal acetyl (Ac); C-terminal amide; L-Trp at 5; D-isomers at all other residues except Gly 4
B5: peptide 894 (peptide)
peptide: VPKGWRFHEMSYS
modifications: N-terminal acetyl (Ac); C-terminal amide; L-Arg at 6; D-isomers at all other residues except Gly 4
B6: peptide 869 (peptide)
peptide: VPKGWRXHEMSYS
modifications: N-terminal acetyl (Ac); C-terminal amide; D-cyclohexylalanine (D-Cha) at 7; D-isomers at all residues except Gly 4
B7: retro-inverso α-MSH (peptide)
peptide: VPKGWRFHEMSYS
modifications: N-terminal acetyl (Ac); C-terminal amide; D-isomers at all residues except Gly 4
B8: peptide 886 (peptide)
peptide: Ac-[dV][dP][dK]G[dW][dR][dF][dH][dS][dI][dI][dS][dS]-NH2
SMILES: CC[C@@H](C)[C@@H](NC(=O)[C@@H](CO)NC(=O)[C@@H](Cc1c[nH]cn1)NC(=O)[C@@H](Cc1ccccc1)NC(=O)[C@@H](CCCNC(=N)N)NC(=O)[C@@H](Cc1c[nH]c2ccccc12)NC(=O)CNC(=O)[C@@H](CCCCN)NC(=O)[C@H]1CCCN1C(=O)[C@H](NC(C)=O)C(C)C)C(=O)N[C@@H](C(=O)N[C@H](CO)C(=O)N[C@H](CO)C(N)=O)[C@H](C)CC
B9: peptide 872 (peptide)
peptide: VPKGWRFREMSYS
modifications: N-terminal acetyl (Ac); C-terminal amide; D-isomers at all residues except Gly 4
B10: peptide 878 (peptide)
peptide: VPKGWRFHEXSYS
modifications: N-terminal acetyl (Ac); C-terminal amide; D-buthionine at 10; D-isomers at all residues except Gly 4

molecular target: mouse MC1R (on murine B16-F1 melanoma cells) (mouse, UniProt Q01727 1-315); assay: cell-based or functional assay
Sequence (Q01727 whole entry): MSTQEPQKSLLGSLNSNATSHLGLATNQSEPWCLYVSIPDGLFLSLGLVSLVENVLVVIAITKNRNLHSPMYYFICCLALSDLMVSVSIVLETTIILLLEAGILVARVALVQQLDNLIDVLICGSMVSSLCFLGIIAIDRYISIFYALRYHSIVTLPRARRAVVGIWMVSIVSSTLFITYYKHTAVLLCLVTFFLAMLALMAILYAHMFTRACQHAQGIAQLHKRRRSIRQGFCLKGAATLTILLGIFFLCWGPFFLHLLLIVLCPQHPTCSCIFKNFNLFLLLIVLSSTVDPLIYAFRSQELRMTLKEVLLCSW

Row | Binder | EC50, cAMP in B16-F1 cells [nM]
1 | B1 | 3600
2 | B2 | 23
3 | B3 | 300
4 | B4 | 270
5 | SYSMEHXRWGKPV (N-terminal acetyl (Ac); C-terminal amide; L-cyclohexylalanine (L-Cha) at 7, also called analog 892) [peptide 892] | 21
6 | B5 | 212000
7 | B6 | 14
8 | B7 | 9700
9 | B8 | 2
10 | B9 | 2000
11 | B10 | 130

molecular target: T1, melanocortin 3 receptor (MC3R) (UniProt P41968 1-323, limits assumed); assay: 125I-NDP-MSH competition, HEK293 membranes
T1 construct: whole, on cells; Membrane preparations; also called MCR-3
T1 sequence (P41968 whole entry): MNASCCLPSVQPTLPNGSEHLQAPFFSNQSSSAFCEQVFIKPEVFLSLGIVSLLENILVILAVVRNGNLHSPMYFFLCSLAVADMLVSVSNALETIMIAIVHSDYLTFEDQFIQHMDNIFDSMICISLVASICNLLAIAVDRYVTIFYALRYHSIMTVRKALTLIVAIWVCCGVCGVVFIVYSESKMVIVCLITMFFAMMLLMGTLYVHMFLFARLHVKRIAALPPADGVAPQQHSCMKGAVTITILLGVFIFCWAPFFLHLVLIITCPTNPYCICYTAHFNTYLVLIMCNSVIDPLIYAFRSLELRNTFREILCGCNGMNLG
From the text: (§1) The mixtures were filtered through 96-well GFC filters (Millipore, Billerica, Mass.), washed 3 times with binding buffer without BSA, dried and counted.

Row | Binder | Ki [nM]
12 | {Butanoyl(4-Ph)}-H[dF]RW-NH2 [(Ph(CH2)3CO) HfRW (819)] | 277
13 | Stearyl-H[dF]RW-NH2 [(Stearyl) HfRW (820)] | 1370

molecular target: T2, melanocortin 5 receptor (MC5R) (UniProt P33032 1-325, limits assumed); assay: 125I-NDP-MSH competition, HEK293 membranes
T2 construct: whole, on cells; Membrane preparations; also called MCR-5
T2 sequence (P33032 whole entry): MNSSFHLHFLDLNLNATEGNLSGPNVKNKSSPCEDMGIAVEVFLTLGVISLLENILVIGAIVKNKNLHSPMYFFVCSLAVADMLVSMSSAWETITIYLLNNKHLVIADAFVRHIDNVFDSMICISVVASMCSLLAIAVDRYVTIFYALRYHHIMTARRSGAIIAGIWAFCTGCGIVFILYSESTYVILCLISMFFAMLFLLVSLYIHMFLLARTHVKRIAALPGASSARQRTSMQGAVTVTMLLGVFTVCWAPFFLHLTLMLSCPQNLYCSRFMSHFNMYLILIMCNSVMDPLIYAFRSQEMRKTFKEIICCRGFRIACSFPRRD
From the text: as §1

Row | Binder | Ki [nM]
14 | {Butanoyl(4-Ph)}-H[dF]RW-NH2 [(Ph(CH2)3CO) HfRW (819)] | ~3000
15 | Stearyl-H[dF]RW-NH2 [(Stearyl) HfRW (820)] | 860

molecular target: T3, melanocortin 1 receptor (MC1R) (UniProt Q01726 1-317, limits assumed); assay: 125I-NDP-MSH competition, HEK293 membranes
T3 construct: whole, on cells; Used as membrane preparations, not whole cells; also called MCR-1; MCR1
T3 sequence (Q01726 whole entry): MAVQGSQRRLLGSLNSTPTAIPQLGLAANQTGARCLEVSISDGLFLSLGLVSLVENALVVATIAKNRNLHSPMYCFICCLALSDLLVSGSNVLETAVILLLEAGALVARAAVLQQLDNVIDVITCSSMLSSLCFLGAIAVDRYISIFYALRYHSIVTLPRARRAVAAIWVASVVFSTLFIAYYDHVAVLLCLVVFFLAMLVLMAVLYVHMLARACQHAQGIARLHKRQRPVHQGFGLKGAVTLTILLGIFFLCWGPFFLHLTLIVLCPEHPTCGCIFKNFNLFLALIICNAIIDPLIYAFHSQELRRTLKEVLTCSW
From the text: as §1

Row | Binder | Ki [nM]
16 | SYSMEHXRWGKPV (N-terminal acetyl (Ac); C-terminal amide; L-cyclohexylalanine (L-Cha) at 7, also called analog 892) [peptide 892] | 0.51
17 | {Butanoyl(4-Ph)}-H[dF]RW-NH2 [(Ph(CH2)3CO) HfRW (819)] | 0.07
18 | Stearyl-H[dF]RW-NH2 [(Stearyl) HfRW (820)] | 1.3

From US20170313756A1 (Sanofi, published 2017)
